Biological target: T1, MBP-COP1 (Arabidopsis thaliana, UniProt P43254 1-675)
T1 sequence (looked up): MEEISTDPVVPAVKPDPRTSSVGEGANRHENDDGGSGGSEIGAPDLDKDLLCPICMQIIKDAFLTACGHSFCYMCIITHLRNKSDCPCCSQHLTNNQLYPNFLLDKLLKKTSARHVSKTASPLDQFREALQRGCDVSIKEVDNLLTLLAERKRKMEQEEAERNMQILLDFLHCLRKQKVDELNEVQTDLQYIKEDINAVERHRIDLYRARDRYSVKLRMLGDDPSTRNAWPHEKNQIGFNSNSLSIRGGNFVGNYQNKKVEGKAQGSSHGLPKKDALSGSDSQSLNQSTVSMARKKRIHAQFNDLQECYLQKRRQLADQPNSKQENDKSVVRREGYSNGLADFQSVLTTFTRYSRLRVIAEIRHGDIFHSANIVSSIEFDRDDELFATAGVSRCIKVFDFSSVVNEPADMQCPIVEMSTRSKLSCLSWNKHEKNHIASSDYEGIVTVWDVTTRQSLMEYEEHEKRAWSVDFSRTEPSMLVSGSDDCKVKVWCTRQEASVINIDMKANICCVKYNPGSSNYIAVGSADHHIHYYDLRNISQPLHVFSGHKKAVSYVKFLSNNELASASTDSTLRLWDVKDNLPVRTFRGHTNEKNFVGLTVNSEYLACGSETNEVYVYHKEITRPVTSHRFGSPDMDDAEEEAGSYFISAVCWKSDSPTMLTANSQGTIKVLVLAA
Assay: pull-down

binding result: binds
B1: GST-HEC2 (natural protein, Arabidopsis thaliana, UniProt Q9SND4 1-231, looked up)
chain: MDNSDILMNMMMQQMEKLPEHFSNSNPNPNPHNIMMLSESNTHPFFFNPTHSHLPFDQTMPHHQPGLNFRYAPSPSSSLPEKRGGCSDNANMAAMREMIFRIAVMQPIHIDPESVKPPKRKNVRISKDPQSVAARHRRERISERIRILQRLVPGGTKMDTASMLDEAIHYVKFLKKQVQSLEEHAVVNGGGMTAVAGGALAGTVGGGYGGKGCGIMRSDHHQMLGNAQILR

Source: publication PMC7959245 (The Plant journal : for cell and molecular biology, 2020)
